The target of experiment [1] is recombinant αIIbβ3 headpiece. The experiment is described as follows: fluorescence polarisation; competition: unlabeled peptide against 3 nM FITC-dodecapeptide on 300 nM αIIbβ3 headpiece; I50 converted to KD; 20 mM HEPES, pH 7.5, 150 mM NaCl, 2 mM MnCl2, 0.1 mM CaCl2.
The target of experiment [2] is full-length human αIIbβ3 on CHO K1 cells (human) (UniProt P08514).
In experiment [3] the target is recombinant αIIbβ3 headpiece. The experiment is described as follows: fluorescence polarisation; competition: unlabeled peptide against 3 nM FITC-dodecapeptide on 300 nM αIIbβ3 headpiece; I50 converted to KD; 20 mM HEPES, pH 7.5, 150 mM NaCl, 2 mM MnCl2, 0.1 mM CaCl2. This is another data set of the same source.
Experiment [4] has as its target six-domain αIIbβ3 headpiece fragment (chymotrypsin-treated, re-purified).
Experiment [5] addresses recombinant αIIbβ3 headpiece. Put plainly: fluorescence polarisation; saturation: FITC-dodecapeptide probe at 3 nM, increasing concentration of αIIbβ3 headpiece; one-site specific binding fit; background with 10 μM tirofiban subtracted; 20 mM HEPES, pH 7.5, 150 mM NaCl, 2 mM MnCl2, 0.1 mM CaCl2.

Like-named read-outs stand apart in the source and are kept apart here. Non-standard residues stand in square brackets, D forms with d. No end group written: not given here. *: point of attachment. FITC = O=C1OC2(c3ccc(O)cc3Oc3cc(O)ccc32)c2ccc(NC(=S)*)cc21; Ahx = NCCCCCC(=O)O

B1: AGDV-OCH3 (O-methylated AGDV) (peptide)
peptide: AGDV-OMe
Regarding B1, the fold reduction in affinity against AGDV in experiment [1] was found to be 7.5 fold.

B2: AGDV tetrapeptide (peptide)
peptide: AGDV
For B2, the Kd in experiment [1] was 9.03 µM.

B3: fibrinogen γC dodecapeptide (peptide)
peptide: HHLGGAKQAGDV
B3: the EC50 of LIBS1 epitope exposure on CHO cells expressing αIIbβ3 (flow cytometry, 1 mM Mg2+ and 1 mM Ca2+) in experiment [2] stood at 580 µM. In experiment [1], the Kd was found to be 1.27 µM.

B4: AGDV-NH2 (amidated AGDV) (peptide)
peptide: AGDV-NH2
For the molecule B4, the fold reduction in affinity against AGDV amounted to 5.6 fold in experiment [1] and 7 fold in experiment [3].

B5: AGD(v) (D-valine in place of L-valine) (peptide)
peptide: AGD[dV]
As to B5, in experiment [1], the fold decrease in binding affinity against AGDV worked out at 24 fold.

B6: RGDF peptide (peptide)
peptide: RGDF
Molecule B6 gave a Stokes radius of the αIIbβ3 headpiece by size-exclusion chromatography (Superdex 200) with 1 mM peptide (4.78 nm in buffer) in experiment [4] of 5.23 nm.

B7: N-acetylated AGDV (peptide)
peptide: Ac-AGDV
On to B7, for which the Kd in experiment [1] turned out to be 1 µM.

B8: QAGDV pentapeptide (peptide)
peptide: QAGDV
As to B8, in experiment [1], the Kd is 7.85 µM.

B9: FITC-aminohexanoyl-… (peptide)
peptide: {FITC-Ahx}-HHLGGAKQAGDV
As to B9, in experiment [5], the dissociation constant Kd is 0.64 µM.

The record behind these values is article PMC4813479, “β-Subunit Binding Is Sufficient for Ligands to Open the Integrin αIIbβ3 Headpiece” (The Journal of Biological Chemistry, 2015).
